No end group written: not given here.

This is an account of results in patent US20210023171A1 (published 2021).

This assay concerns the target αvβ5 integrin (soluble / detergent-solubilized) (UniProt P06756 31-1048; P18084 24-799). Nature of the assay: yeast display, flow cytometry. On the technique in general: In flow cytometry, cells or beads pass a laser one at a time.

αvβ5 integrin (soluble / detergent-solubilized), sequence (P06756 31-1048, chain 1 of 2): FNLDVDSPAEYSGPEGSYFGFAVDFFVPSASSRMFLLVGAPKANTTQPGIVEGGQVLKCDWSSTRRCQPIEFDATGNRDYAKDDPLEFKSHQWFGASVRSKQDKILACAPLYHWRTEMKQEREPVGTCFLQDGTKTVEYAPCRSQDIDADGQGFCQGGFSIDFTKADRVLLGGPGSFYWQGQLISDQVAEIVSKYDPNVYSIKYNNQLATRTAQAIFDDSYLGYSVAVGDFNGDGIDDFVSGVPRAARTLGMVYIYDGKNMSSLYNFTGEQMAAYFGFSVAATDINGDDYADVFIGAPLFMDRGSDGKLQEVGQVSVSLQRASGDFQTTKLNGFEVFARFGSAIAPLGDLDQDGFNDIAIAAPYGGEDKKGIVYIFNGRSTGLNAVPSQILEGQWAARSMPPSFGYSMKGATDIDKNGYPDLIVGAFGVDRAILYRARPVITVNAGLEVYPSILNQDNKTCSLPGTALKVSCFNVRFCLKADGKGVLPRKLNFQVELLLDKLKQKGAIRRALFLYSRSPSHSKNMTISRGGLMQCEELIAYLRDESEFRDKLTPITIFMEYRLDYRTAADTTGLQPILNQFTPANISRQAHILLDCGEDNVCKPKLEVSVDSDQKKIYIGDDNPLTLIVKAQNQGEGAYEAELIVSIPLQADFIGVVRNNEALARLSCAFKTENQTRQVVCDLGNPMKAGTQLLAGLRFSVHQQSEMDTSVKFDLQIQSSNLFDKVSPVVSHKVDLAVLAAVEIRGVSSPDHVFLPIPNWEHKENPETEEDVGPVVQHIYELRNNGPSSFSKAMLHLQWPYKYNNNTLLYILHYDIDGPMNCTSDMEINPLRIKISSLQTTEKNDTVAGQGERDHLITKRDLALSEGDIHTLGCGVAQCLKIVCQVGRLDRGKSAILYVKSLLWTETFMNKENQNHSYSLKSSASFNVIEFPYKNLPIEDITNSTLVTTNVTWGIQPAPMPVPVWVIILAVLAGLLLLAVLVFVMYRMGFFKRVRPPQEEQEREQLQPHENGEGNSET
αvβ5 integrin (soluble / detergent-solubilized), sequence (P18084 24-799, chain 2 of 2): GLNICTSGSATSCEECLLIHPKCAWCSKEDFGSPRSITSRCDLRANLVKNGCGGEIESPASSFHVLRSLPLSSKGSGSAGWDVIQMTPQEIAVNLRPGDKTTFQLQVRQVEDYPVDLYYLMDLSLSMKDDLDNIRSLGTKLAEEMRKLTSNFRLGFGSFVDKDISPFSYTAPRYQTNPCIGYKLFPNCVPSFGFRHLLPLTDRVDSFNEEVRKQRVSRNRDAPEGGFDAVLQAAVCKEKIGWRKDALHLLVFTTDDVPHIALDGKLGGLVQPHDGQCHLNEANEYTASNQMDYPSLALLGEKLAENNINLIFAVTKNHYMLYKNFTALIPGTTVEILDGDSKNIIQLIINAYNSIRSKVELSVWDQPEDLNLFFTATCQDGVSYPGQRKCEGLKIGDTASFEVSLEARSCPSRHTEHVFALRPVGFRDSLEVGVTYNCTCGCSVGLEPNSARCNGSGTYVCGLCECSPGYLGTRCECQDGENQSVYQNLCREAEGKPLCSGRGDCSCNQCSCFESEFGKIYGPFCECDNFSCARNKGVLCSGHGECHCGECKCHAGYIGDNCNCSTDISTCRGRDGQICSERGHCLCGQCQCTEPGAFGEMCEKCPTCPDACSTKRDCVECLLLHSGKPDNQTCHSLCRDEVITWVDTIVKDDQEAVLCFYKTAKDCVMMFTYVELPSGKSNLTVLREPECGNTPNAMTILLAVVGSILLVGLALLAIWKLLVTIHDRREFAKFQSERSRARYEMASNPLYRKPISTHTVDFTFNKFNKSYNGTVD

B1: AgRP 7C loop 1 clone 1-1 (yeast-displayed) (peptide)
chain: GCASGSGDPCLGQQVPCCDPAATCYCYGRGDNDLRCYCR
modifications: ends and bridges not checked; cysteine pairing not given here
As for B1, the binding result is listed as “no binding (tested: 50 nM)”.

B2: AgRP 7C loop 2 clone 2-6 (yeast-displayed) (peptide)
chain: GCVRLHESCWGSILGHCCDPAATCYCYGRGDNDLRCYCR
modifications: ends and bridges not checked; cysteine pairing not given here
In the case of B2, the binding result is reported as “no binding (tested: 50 nM)”.

B3: AgRP 7C loop 1 clone 1-5 (yeast-displayed) (peptide)
chain: GCIASGLFGCLGQQVPCCDPAATCYCYGRGDNDLRCYCR
modifications: ends and bridges not checked; cysteine pairing not given here
On to B3, for which the binding result was “no binding (tested: 50 nM)”.

B4: AgRP 7C loop 2 clone 2-1 (yeast-displayed) (peptide)
chain: GCVRLHESCGGSVGVECCDPAATCYCYGRGDNDLRCYCR
modifications: ends and bridges not checked; cysteine pairing not given here
Consider B4, for which the binding result is recorded as “no binding (tested: 50 nM)”.

B5: AgRP 7C loop 2 clone 2-2 (yeast-displayed) (peptide)
chain: GCVRLHESCDPRVGVRCCDPAATCYCYGRGDNDLRCYCR
modifications: ends and bridges not checked; cysteine pairing not given here
Turning to B5, the binding result is recorded as “no binding (tested: 50 nM)”.

B6: AgRP 7C loop 2 clone 2-4 (yeast-displayed) (peptide)
chain: GCVRLHESCEWGRGGDCCDPAATCYCYGRGDNDLRCYCR
modifications: ends and bridges not checked; cysteine pairing not given here
For the molecule B6, the binding result is “no binding (tested: 50 nM)”.

B7: AgRP 7C loop 1 clone 1-2 (yeast-displayed) (peptide)
chain: GCRPLGDAGCLGQQVPCCDPAATCYCYGRGDNDLRCYCR
modifications: ends and bridges not checked; cysteine pairing not given here
In the case of B7, the binding result was “no binding (tested: 50 nM)”.

B8: AgRP 7C loop 1 clone 1-6 (yeast-displayed) (peptide)
chain: GCDLYGSHDCLGQQVPCCDPAATCYCYGRGDNDLRCYCR
modifications: ends and bridges not checked; cysteine pairing not given here
With B8, the binding result is listed as “no binding (tested: 50 nM)”.

B9: AgRP 7C loop 2 clone 2-5 (yeast-displayed) (peptide)
chain: GCVRLHESCGSWGTLACCDPAATCYCYGRGDNDLRCYCR
modifications: ends and bridges not checked; cysteine pairing not given here
Turning to B9, the binding result is recorded as “no binding (tested: 50 nM)”.

B10: AgRP 7C loop 1 clone 1-3 (yeast-displayed) (peptide)
chain: GCLAGLSGPCLGQQVPCCDPAATCYCYGRGDNDLRCYCR
modifications: ends and bridges not checked; cysteine pairing not given here
For B10, the binding result is on record as “no binding (tested: 50 nM)”.

B11: AgRP 7C loop 3 clone 3-1 (yeast-displayed) (peptide)
chain: GCVRLHESCLGQQVPCCGTPKPECYCYGRGDNDLRCYCR
modifications: ends and bridges not checked; cysteine pairing not given here
As for B11, the binding result was “no binding (tested: 50 nM)”.

B12: AgRP 7C loop 2 clone 2-3 (yeast-displayed) (peptide)
chain: GCVRLHESCADTLMAACCDPAATCYCYGRGDNDLRCYCR
modifications: ends and bridges not checked; cysteine pairing not given here
For B12, the binding result is on record as “no binding (tested: 50 nM)”.

B13: AgRP 7C loop 1 clone 1-4 (yeast-displayed) (peptide)
chain: GCRSASVGGCLGQQVPCCDPAATCYCYGRGDNDLRCYCR
modifications: ends and bridges not checked; cysteine pairing not given here
With B13, the binding result is recorded as “no binding (tested: 50 nM)”.
